Assay results taken from patent US7160981B2, “Peptide antagonists of DP transcription factors” (Prolifix Limited, priority 1996, dated 2007).

Assays:
Assay type in all cases: cell-based
[1] = tested on: E2F tumour cell line (E2F4 tumour cells); conditions: 24 hours; 33 μM peptide, 33 μM etoposide
Procedure: After 24 hours random regions of the culture dish were examined and the percentage of nonviable cells determined by counting cells with an abnormal morphology.
At 24 hours post treatment cellular morphology was noted and those with a rounded abnormal appearance were scored as dead.
Cells were cultured as above.

DP-1/E2F-1 interaction = target: T1, DP-1/E2F-1 interaction (UniProt Q01094+Q08639, A172G/L173G); test: yeast two-hybrid assay LexA-DP-1 / GAL4 activation domain-E2F-1; conditions: A172 and L173 changed to glycine
T1 construct: expressed in transfected cells; host or cells: yeast strain CTY10-5d
T1 sequence (Q01094 whole entry, the tested form may be a part): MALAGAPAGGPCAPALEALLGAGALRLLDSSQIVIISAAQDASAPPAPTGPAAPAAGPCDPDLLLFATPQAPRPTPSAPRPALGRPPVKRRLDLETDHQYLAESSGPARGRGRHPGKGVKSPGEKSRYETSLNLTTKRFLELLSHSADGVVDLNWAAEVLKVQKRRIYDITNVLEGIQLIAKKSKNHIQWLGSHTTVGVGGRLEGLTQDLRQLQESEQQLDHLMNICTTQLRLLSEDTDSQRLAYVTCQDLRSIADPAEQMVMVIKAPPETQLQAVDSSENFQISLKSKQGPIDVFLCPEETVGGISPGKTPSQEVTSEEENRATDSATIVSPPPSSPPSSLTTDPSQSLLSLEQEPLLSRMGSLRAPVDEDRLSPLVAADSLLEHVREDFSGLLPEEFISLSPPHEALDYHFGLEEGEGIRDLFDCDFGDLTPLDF
T1 sequence (Q08639 whole entry A172G/L173G, the tested form may be a part): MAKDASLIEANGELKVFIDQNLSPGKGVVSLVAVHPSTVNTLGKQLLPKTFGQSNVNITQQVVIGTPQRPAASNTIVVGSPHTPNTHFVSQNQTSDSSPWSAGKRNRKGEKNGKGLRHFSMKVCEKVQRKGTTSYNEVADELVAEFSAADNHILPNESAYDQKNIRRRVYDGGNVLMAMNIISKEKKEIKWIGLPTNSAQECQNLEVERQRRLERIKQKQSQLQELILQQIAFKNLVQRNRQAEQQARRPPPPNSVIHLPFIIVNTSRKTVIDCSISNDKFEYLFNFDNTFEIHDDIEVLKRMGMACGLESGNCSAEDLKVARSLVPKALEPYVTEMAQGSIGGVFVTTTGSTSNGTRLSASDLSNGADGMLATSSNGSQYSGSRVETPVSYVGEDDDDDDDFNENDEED
Excerpt: (§1) To study the role of the DEF box region in the context of the wild-type DP-1 protein, we took advantage of a yeast assay previously used to assess the properties of the DP-1/E2F heterodimer (23,31). When assayed in the context of two-hybrid proteins, with DP-1 is fused the LexA DNA binding domain and E2F-1 to the transcriptional activation domain of GAL4, transcriptional stimulation of a reporter construct driven by LEXA DNA binding sites was apparent only when both proteins were expressed together. Similarly, transcriptional activation of a reporter gene driven by physiological E2F DNA binding sites, in p4xWT.CYC1 (23,31), was dependent upon the presence of both proteins.
(§2) The yeast two-hybrid expression plasmids used were PLEX(HIS) which contains the complete LexA coding sequence, pGAD.L6 which contains the Gal 4 transcription activation domain. pLEX(HIS).DP-1 contains the murine DP-1 fused to the C-terminus of the LexA coding sequence and GAD.E2F-1 the human E2F-1 downstream of the Gal4 activation domain; all constructs were as described previously (23,31), apart from pLEX-DP-1/MT which contained DP-1 with residues 172 and 173 altered to glycine residues. Yeast strain CTY10-5d was used for the two-hybrid assay and W3031a, which carries p4xWT.CYC 1, for the E2F site-dependent transcription assay (23,31).

[2] = tested on: E2F site-dependent transcription; test: yeast E2F binding site reporter assay (p4xWT.CYC1); conditions: A172 and L173 changed to glycine
Excerpt: as §1, §2

Molecule | cell death (cells with rounded abnormal appearance scored as dead) [1] | reduction of activity relative to wild-type DP-1 in two-hybrid assay (DP-1/E2F-1 interaction) | reduction of response of E2F binding site reporter [2]
COc1cc([C@@H]2c3cc4c(cc3[C@@H](O[C@@H]3O[C@@H]5CO[C@@H](C)O[C@H]5[C@H](O)[C@H]3O)[C@H]3COC(=O)[C@H]23)OCO4)cc(OC)c1O [etoposide] | approximately 15% | – | –
DP-1^172/173: mutant DP-1 protein with residues A172 and L173 changed to glycine (protein, UniProt Q14186 1-410, looked up, variant A172G L173G) Transcription factor Dp-1: MAKDAGLIEANGELKVFIDQNLSPGKGVVSLVAVHPSTVNPLGKQLLPKTFGQSNVNIAQQVVIGTPQRPAASNTLVVGSPHTPSTHFASQNQPSDSSPWSAGKRNRKGEKNGKGLRHFSMKVCEKVQRKGTTSYNEVADELVAEFSAADNHILPNESAYDQKNIRRRVYDGGNVLMAMNIISKEKKEIKWIGLPTNSAQECQNLEVERQRRLERIKQKQSQLQELILQQIAFKNLVQRNRHAEQQASRPPPPNSVIHLPFIIVNTSKKTVIDCSISNDKFEYLFNFDNTFEIHDDIEVLKRMGMACGLESGSCSAEDLKMARSLVPKALEPYVTEMAQGTVGGVFITTAGSTSNGTRFSASDLTNGADGMLATSSNGSQYSGSRVETPVSYVGEDDEEDDDFNENDEDD | – | about 50% | about 50%
